Experimental findings from article PMC3130059 are described below.

The target of experiment [1] is dansyl-calmodulin (dansyl-CaM) (bovine) (UniProt P62157). The experiment is described as follows: other fluorescence titration; 1 µM dansyl-CaM titrated with Ras protein (GppNHp form); […]; 20 mM HEPES pH 7.4, 150 mM NaCl, 1 mM CaCl2, 1 mM MgCl2; excitation 335 nm, emission at 480 nm.
Experiment [2] has as its target full-length K-RasB (unprocessed) (UniProt P01116). The experiment is described as follows: ITC; 0.3–0.8 mM CaM in the syringe injected into 20–40 µM Ras protein (GppNHp form) in the cell; […]; 20 mM HEPES pH 7.4, 150 mM NaCl, 1 mM CaCl2, 1 mM MgCl2; single set of identical sites model.
The target in experiment [3] is farnesylated K-RasB-K175A (UniProt P01116). The experiment is described as above.
The target in a further experiment is farnesylated K-RasB (UniProt P01116). The experiment is described as above.
A further experiment addresses K-RasB-K175A (UniProt P01116). The experiment is described as above.
Experiment [4] concerns the target H-Ras-(KKKKKK), chimeric H-Ras with the polylysine region of K-RasB at 175-180 (UniProt P01112). The experiment is described as above.

In experiment [1], “H-Ras-(KKKKKK), chimeric H-Ras with the polylysine region of K-RasB at 175-180 (from UniProt P01112 1-189) (natural protein)” showed a Kd of 2.53 µM.

Take “calmodulin (CaM), Ca^2+-saturated, from bovine brain (from UniProt P62157 1-149) (natural protein)”: the dH in experiment [2] was 3.63 kcal/mol; in experiment [3], 1.01 kcal/mol; in the experiment with farnesylated K-RasB, 3.33 kcal/mol; in the experiment with K-RasB-K175A it was 2.48 kcal/mol; in experiment [4], 6.16 kcal/mol. Also, the stoichiometry N worked out at 0.924 in experiment [2]; 0.972 in experiment [3]; 1.13 with farnesylated K-RasB; 0.995 with K-RasB-K175A; 0.903 in experiment [4]. Besides, in experiment [4], the Kd turned out to be 3.89 µM.
